Experiment: soluble on expression in E. coli; label from the status in PepcDB or PDB records

Soluble on expression in E. coli, soluble:
MSLDLPAHARVVIVGGGVMGVGLAYHLAHEGWGGDTVLLEKAELTSGSTWHAAGQITHSTSSFGLGKCVDYNIGLYSGKLEAETGQAVTWHGCGSFRLAYTEDEMDWLRHTLSVGRSLGFNIELVGPKRIAELHPFYNLDGVLGALHTPDDGHVDPTNVTMAMAAGARAKGVRIFRHTCATNITQGANGEWVVETGKGTITCEHVVNAGGTYARQMGEWSGLQLPMTSMTHHYFVTEPVPEFQSLDRELPVIRDDRKVSGYIRMEQKRGLIGIYEKANPNAVWIDECPWDYENWLFDADYDRVMPWLEESLNRMPIFADLGIQREVHGAISHPPDGNPLIGPAPGVRNYWCCCGTQIGIGWGPGLSRELARWIVHGAADISMRDFDPRRFGAYATKDWQVIKAREDYCLRHEIPFPHFNRLAGRPVKPSPLYDRLKEKGAVYEEVYGHERPRWFARGIEQRDHYGFGRTPVHDMVATECAAVRSAAGIMDISAFTRVEVSGPDAGALLDRLTANRLPQKPGGIALTHMLNRRGRIELETTVVKLDEDRFYLVCAAFFEQRLLDHLAAHRGTADITVRNLSTDWAALALNGPHARDILAACTEADLSNARFKWLTAQQITVAGHSLWALRMSYAGELGWELHIPRDHALAVYDALWAAGQRYGLTDYGSFAMNALRMEKAFKGAGELTNEVTLAEADVLRFARTDKDYLGRDKTLNAGNLPWVCAYLEIAPDGRFDGNGGEAVLLDGKVVGSTASVAYGHTVGKILAFAYVKPQVNVPGTEVEVIIAGNPRKGRILGAPAYDPDSTKPRADAEGHHHHHH
MSLDLQLYLSNLANQIDRETGIGDVPLVILLDDLSEAGSISELVNGALTCKYHKPYIIGTTNQPVKMTPNHGLHLSFRRMLTFSNNVEPANGFLVRYLRRKLVESDSDINANKEELLRVLDWVPKLWYHLHTFLEKHSTSDFLIGGPCFFLSCPIGIEDFRTWFIDLWNNSIIPYLQEGAKDGIKVHGQKAAWEDPVEWVRDTLPWPSAQQDDSTPSSLDSDPLMAMLLKLQEAANYIESPDRETILDPNLQATLEGHHHHHH
MSLDQAIRRNPNVPVVVRGWLHKQDSSGMRLWKRRWFVLADYCLFYYKDSREEAVLGSIPLPSYVISPVAPEDRISRKYSFKAVHTGMRALIYNSSTAGSQAEQSGMRTYYFSADTQEDMNAWVRAMNQAAQVLSRSSLKRDMEKVERQAVPQANHTEGHHHHHH
MSLDRVEVLGVEFVEFTADQTEAEALGSLLGAMGFRAVASHREKAVTLWRQGCDHRGINVVINTEQKGFAHSSYLVHGASAYAIGLKVPDASAAVERARALGAEIFLPESGEGEGAMAAIRGMGGGLIYFVDEIDDVWSREFVAPGDDRQPAATLVAIDHVAQSMKEEQLPSWLLFYTSILDADKLAQVDIVDPAGLVRSQVVENASGTLRLTLNGADNHRTLAGHFIAESFGSGVQHVAFRTDDIFEAAEHMRRSGFRALAISRNYYDDIEVRFALEPGFVDRLRDENILYDRDEDGEYFQIYGPTFGEGFFFEIVERRSGYRGYGAANAPFRIAAQKRCLRPAGMPAEGSSRVDLQVCRPKKGIITITTDPNSSSVDKLAAALEHHHHHH
MSLDSNTVAVNPDSLILKRFLKTNQLNGIMIVTGPDGKAQVFSNQSKVDGSPVSIKDYFPLASLQKLITGVAIQQLIDKGKLSLNTPLSKYYPQIENSENITIQNLLTHTSGLADRKEVPQQVLTTQEQQLDFSLTNYRVTYRKKWKYANINYALLAGIISQISGQNYATYVRQHFLTAGKGWHFKKYIQIKDKSKLAALSVMDQSTTWDKLSKEVTSTFGAGDYASRPVDYWKFMMAFINDQFVPVSEYQRSMKMTSKSYYGGLYISQKMLHANGGGFDTYSCFAYSNPKTKQVMVLFITNGKYKRVKSLAAKAFKLYADSYALRKNETSEGHHHHHH
MSLDSRPKLPQTLSRGWGDQLIWTQTYEEALYKSKTSNKPLMIIHHLDECPHSQALKKVFAENKEIQKLAEQFVLLNLVYETTDKHLSPDGQYVPRIMFVDPSLTVRADITGRYSNRLYAYEPADTALLLDNMKKALKLLKTELEGHHHHHH
MSLDSTTIIIYGEKLSDSQRAEVKELLEISDQEMVEEHDVTGQDYADYINGNPRSNMYSSAGIILESQGAGLEVNIVTPENITEVTAEMYENALLTAGAENATVNVVSPVQVSGHSALTGIYKAYDVEGEQLDKERMELANEELNVATDLVDNGDVNQEEVSNLLTEIKKMIAEQNPATREDVEQIVSEQLDQLEINLSEQDRQMLVDLFDKMKDLEIDFGAVKEQLDSITNSIVEKAEDLGLDEGFWDKVANFFRDLFRSIGNLFGEGHHHHHH
MSLDVALAPPGPLASGGLRVTALGGISEIGRNMTIFEHLGRLLIIDCGVLFPGHDEPGVDLILPDLRHIEDRLDDIEALVLTHAHEDHIGAIPFLLKLRSDIPVVGSKFTLALVAAKCREHRIKPVFVEVVGGQSSRHGVFECEYFAVNHSIPDALTIAVYTGAGTVLHTGDIKLDQLPLDGRPTDLPGMSRLGDAGVDLFLCDSTNAEIPGVGPSESEVGPTLHRLIQGADGRVIVACFASNVDRVQQVIDAAVALGRRVSFVGRSMVRNMSIARDLGFLRVDDSHMIDIAAAEMMAPEQVVLITTGTQGEPMSALSRMSRGEHQSITLTSGDLVVLSSSLIPGNEEAVYGVIDALAKIGARVVTNAQARVHVSGHAYAGELLFLYNGVRPRQVMPVHGTEGHHHHHH
MSLDVDSKTLIHAGKLIDGKSDQVQSRISIVIDGNIISDIKKGFISSNDFEDYIDLRDHTVLPGLMDMHVHFGQEYQSKAQAPIKVEREMQAILATQHAYVTFKSGFTTVRQVGDSGLVAISLRDAINSGKLAGPRIFAAGKTIATTGGHADPTNGKAVDDYDYPVPEQGVVNGPYEVYAAVRQRYKDGADGIKITVTGGVLSVAKSGQNPQFTQEEVDAVVSAAKDYGMWVAVHAHGAEGMKRAIKAGVDSIEHGTFMDLEAMDLMIENGTYYVPTISAGEFVAEKSKIDNFFPEIVRPKAASVGPQISDTFRKAYEKGVKIAFGTDAGVQKHGTNWKEFVYMVENGMPAMKAIQSATMETAKLLRIEDKLGSIESGKLADLIAVKGNPIEDISVLENVDVVIKDGLLYEGHHHHHH
MSLDYGINFWSDNDFIIEDGQVKINYKTKPAIIDIVKKVREEGYRGPLLLRFPHLIKKQVDKIFTHFETSIKQYHYKGQFKAVFPLKVNQFPNFVLPLVELSQNRCYGLEAGSKAELIIAMAYTNKGSPITVNGFKDKEMISLGFIAANMGHEITLTIEGLNELETIIEVAEEMGKPCPNIGLRIRLHSSGIGIWAKSGGINSKFGLTSTELLEGIRLLEKHKLIEKFTMIHFHIGSQISDISPLKKAMREAGNIYAELRKMGAKNLKSVNIGGGLAVEYTQHEGSPNRNYTLDEFAGDVVFSLKEIAKNKKEPEPDIYIESGRYIAASHALLVAPVLELFSQEYDEKALHLKDKNPQLIEELNELYNTVNEKYAIEYLHDSLDHMESLLTLFDLGYIDLQDRSNTEILVHLIIKKVIKILKHKNHSDIIRIQEQVQERYLLNCSFFQSLPDYWGLEQSFPVMPLDRLNKRPTRSASLWDITCDSDGEIGFDLNKPLFLHDVDVTTEEYFLGFFLVGAYQEVLGMRHNLFTHPTELSVEFEEDGTHSVTNLLEAQTILDVLDDLDYDTKEIERRLKQRIEDSELIDDETRKEVLGQLYVMLSENGYLRTITNGEGHHHHHH
MSLEDTTITFWHAMNGVQEEALTKLTKDFMKENPKIKVELQNQSAYPDLQAKINSTLTSPKDLPTITQAYPGWLWNAAQDEMLVDLKPYMDDDTIGWKDAEPIREVLLDGAKIDGKQYGIPFNKSTEMLFYNADLLKEYGVEVPKTLEELKEASKTIYEKSNKEVVGAGFDSLNNYYAIGMKNKGVDFNKDLDLTSKDSQEVVDYYRDGIEAGYFRTAGSDKYLSGPFANKKVAMFVGSIAGAGFVQKDAEAGGYEYGVAPRPEKINLQQGTDIYMFDSATPEQRTAAFEFMKFLATPDSQLYWAQQTGYMPILESVLHSDEYKNSKTTKVPAQLENAVKDLFAIPVEENADSAYNEMRTIMESIFASSNKDTRKLLKDATSQFEQAWNQEGHHHHHH
MSLEFGRELPGKRDPQARLKDYKELYLDFSATQIKNQAARCMNCGVPFCHSGCPLGNIIPEFNDAVYRNDWEEAAEILFSTNNFPEFTGRICPAPCEASCVLGINKPPVTIENIEKSIVETAFEKGILKPNPPKKRTGKTVAVVGSGPAGLAAAAQLNSAGHTVTVFERADQVGGLLRYGIPDFKLEKWVIDRRVKLMEEEGVIFKTNTNVGVTVKAKDIVKEFDAVVLTGGSTVGRDLPIPGRQFKGVHFAMEFLSQQNKRVANIKPEIDHTGEAYKNGDLLATAKNVVVIGGGDTGSDCVGTSNRHGAKSVLQFELMPKPPENKNETTPWPNWPMILRTSTSHEEGCDRLWSITTKEFIGDADGNLTGLKIAEMGWVTAPDSKLPKYQELPGTERVIPCELTLLAMGFLHPQHAGMLNELGVEYDERGNIKANGKYQTNVDKVFTAGDMRRGQSLVVWAISEGREAARNVDIFLMGTTSLEAKDHGMLDTVYAEGHHHHHH

Soluble on expression in E. coli, not soluble:
MSLDNDIFKLNVYIKNIDTSKSNLRYTEGYLQSLTNILTRAKEIAIQGASGTYESDDKKMISKEVNALLEDVVAIANAKGPDGYSIFSGTKIDSEAFKVTRENKISKTSKDGAGPQIIKVEYNGNQAEKKTEVYNDIHMSNNYPGNVIFFLQNQNIISSINTNGFAVKENTKIYIDNIEIGLTAGDTALDIVAKINESSAPVEASIDPVLNSLSIKTTTPHQIWITEEKESNVLQTLGILTKNNDTKLPPYNLSSSTEVRSRSIFDALIELRDTLYNNKEELVGSRSLAEIDESLKRLLISVADLGAKENRLDRSYERISKEAADMKEDMIQYTDLDVTKAITNLNMASLAYQVSIGISAKIMQTTLLDFIKEGHHHHHH
MSLDNQPLIVIYDEGAALPKDIVTELNGVAPLVLVINSNEHTRERISYFSRFGHVVDGSDIARAVSELAHLNPAGIVTFSERALRLTATLAKHLNLPFHNLETVYRLTDKYKQRVALQEAGIESIRFYLINTVSDWEQAVEQVCLPAVLKPAYGGGSIDTYLIEDPQTGKSLVEKLLSNKQVGFDGGRSLVLEEFLQGRPSLPFGDYVSVESLVVNGEIKHINVTGKMPLSPPFREYGHIWPSVLSDSEQNQIYALTSSAINVLGVNRGITHTELKLTEQGPRIIEVNGRVGGGINEMAKISLNISLLEMAARLALGKMIDEGHHHHHH
MSLDRGVQWVLMGAPGAWRHVFAERLSKLLEVPHISMGSLVRQELNPRSSLYKEIASAVNERKLVPKSVVFALLSKRLEEGYARGETGFILHGIPRTRFQAETLDQIAQIDLVVNLKCSEDHLVNRNETALPQQEFLGSMLHSPVAINARRESVGVYAQEVEEYYRKQRKLLDFHVGGATSADTWQGLLAALHLKQVNLTTSQKLTEGHHHHHH
MSLEDCVISEWGPWTQCALPCNPSGSRQRSADPIRQPADEGRACPDAVEKEPCSLNKNCYHYDYNVTDWSTCQLSEKAVCGNGIKTRMLDCVRSDGKSVDLKYCEELGLEKNWPMNTSCTVECPVNCQLSDWSSWSQCSQTCGLTGKMIRKRTVTQPFQGDGRPCPSLMEQSKPCPVKPCYRWQYGQWSPCQVQEAQCGEGTRTRNISCVVSDGSAEDFSKVVDEEFCANTELEGHHHHHH
MSLEDTLQAPTPLQIERWLRKQFYSVDRNREDRISAKDLKNMLSQVNYRVPNMRFLRERLTDLEQRSGDITYGQFAQLYRSLMYSAQKTMDLPFLEASTLRAGERPELCRVSLPEFQQFLLDYQGELWAVDRLQVQEFMLSFLRDPLREIEEPYFFLDEFVTFLFSKENSVWNSQLDAVCPDTMNNPLSHYWISSSHNTYLTGDQFSSESSLEAYARCLRMGCRCIELDCWDGPDGMPVIYHGHTLTTKIKFSDVLHTIKEHAFVASEYPVILSIEDHCSIAQQRNMAQYFKKVLGDTLLTKPVEISADGLPSPNQLKRKILIKHKKLAEGSAYDENSPLGDLLRGVLDVPACQIAIRPEGKNNRLFVFSISMASVAHWSLDVAADSQEELQDEGHHHHHH
